# Reference: the DeepSol protein solubility set
# Assay: soluble on expression in E. coli; label from the status in PepcDB or PDB records
row,Sequence,soluble on expression in E. coli
1,MTSMHTSVNGCKFCDIVKNKKELQLKENKSCVVINDIKPKAKNHYLVLSKQHIAKPTDLTVADVPLLEEMEKTGRELLREHLKKKGEADTVEDMLRIGFHLPPLLSVHHLHMHIIYPISDMGLISRKLTFRPGKVFKPARELIDQLKEDAGVPDPLEGNPAKDDVHEKIPAQVIS,not soluble
2,MGSDKIHHHHHHMLSTGLYEDFPTLKMKINGKRIVYLDSAATTLKPKQVVKKLEEFYYNSYANVHRAVHTLAVRATTEFEETREEFAEFLGASPEEIIFTSGTTMAINLAVVSLLRSGILKEDDLVLVSLLEHHANFVPWLRLSKFHGYRIDFIRPSGRFGTLEMDDLLKHRDKNPKVVAITGLSNVTGQRIPVEELRNVFPNSIILLDGAQLIPHEPVKPKEIGVDFLAFSLHKMLGPTGVGVLYGKREVLEQMEPFLYGGEMIDRVSLEDVTFNELPYKFEAGTPNIADIVASREALRYLKETGFDSVHEKIEQLTQMALKEMMKIGGVEIYGPLDERQHGIVSFNVKGIHPHDVAHILDQEFGIAVRSGHHCAQPLMSILKEQSQIDFPNSTCRASFYIYNTEEDVKILVEGVKKVKEWFSR,not soluble
3,MSLEVPLLEVLLYTDGSVTRILERFFEEVTIDPLETRKLKVEGREARLLGVPDGDTVYVRRVVIKVDGRPAILATSLARPDNLPGRLRRLVLQSRKPLGKMIEELRLETRREILRVEEARPSPEDEEILDVSVPKIPWREYLVYHRRTPMLLIRERFNPEVLGREGEGHHHHHH,not soluble
4,MGHHHHHHSHMTDQTYCDRLVQDTPFLTGHGRLSEQQVDRIILQLNRYYPQILTNKEAEKFRNPKASLRVRLCDLLSHLQRSGERDCQEFYRALYIHAQPLHSRLPSRHALRKFHITNHACLVLARGGHPSLPLMAWMSSMTTQVCCSPGLASPLASAPPQRPPSGPEGRVWQAQAVQMLVSVSHFLPLPPSLSHGSFHTAWGILYVHSCPSFSNLIPRGSLHVCVDSNLVPTAAWRS,not soluble
5,AHHHHHHGSGVPIGEIIPRKEIELENLYGKKIAIDALNAIYQFLSTIRQKDGTPLMDSKGRITSHLSGLFYRTINLMEAGIKPVYVFDGEPPEFKKKELEKRREAREEAEEKWREALEKGEIEEARKYAQRATRVNEMLIEDAKKLLELMGIPIVQAPSEGEAQAAYMAAKGSVYASASQDYDSLLFGAPRLVRNLTITGKRKLPGKNVYVEIKPELIILEEVLKELKLTREKLIELAILVGTDYNPGGIKGIGLKKALEIVRHSKDPLAKFQKQSDVDLYAIKEFFLNPPVTDNYNLVWRDPDEEGILKFLCDEHDFSEERVKNGLERLKKAIKSGKQSTLESWFKR,soluble
6,MGSDKIHHHHHHMEVAMEKIYYPRTIDSYLLEWKNERAHKPLLLRGARQVGKSSAVRQLGKTFKYFMEVNFERDKEIISVFTGNLKPKEITSRLAAFYGIPVVPGETLLFLDEIQACTPAIHSLWFFYEDYPELHVVAAGSLLEFALKKMAFFGVGRVRSLFMYPMSFDEFLAATGHAGWIEAKRNASPAEPLFEALHGKLVESFRNYLMVGGMPESVQNWVETEDYLKCQQVQDDIMLAYEDDFSKYEEKADPMLLRQTLRSVAQQIGGKFVYSNVQGNYRSEKIKSALELLKDAGLVRPAVHTAANGIPLGAEINEKFVKYIFLDSGLLLRLLGLENTGGTSEMSRLVLVGAASDLVNKGHITEMVAGLELLKYNTPVQRHDLYYWQNLSRGAQAEVDYVIVKDMRVVPLEVKAGTTGSMKSMYQFMEEKHLTYGIRTSLENFGKLEKADIIPLYALSNLYK,not soluble
7,MNMTIFIVFVICLSCVSLSLGTETCPPLTTIKPPDDIQKSLFYPSNWNDDLPTPNFAAGQKCSFKVIGPVVPQIRTVHAKSPPLALNAMSSTNPIVVKSDTHVSFLPIPQNYNYLDPILRSVQVYDGPTIDSTHLGTLYQAIASNNSLVSSGKYLTFYSLSWYYSVRNIVILQDYSDIQNYASYQAFTCHNSCGVSLDASKGTAAVLLFNSLSFVNQLSMSDNNSTLSVYTNSISDDNKLSDYSYSNSQTNIPQKFVGNYTIFVLDKGQANLSLKTYTPNNAWWSYVFYGQRGFFASPNFGTSDSDQNLCDAVSINGKHPAKITYTVDRSAIVGPAVLTVSIGGNITIYDVTNLPGPDPISAIGMSIAVNYESNGVISTGAFVSFEFQKSATSNGILFTIVLTICMAIFF,not soluble
8,MGSSHHHHHHSSGLVPRGSHMKDTEDAFGHALMDYADGKCSYEMVETRNGKIDVTSISYYFRDHDQWPSMEREAIRYAKGRVVDVGAGAGRHSLYLQDQGFDVTALDISPLAVEVMKHRGVKNAKIASIDEVEPGWDTMILLGNNFGLMRTIDEAMAFLRRFYSESSDDARIIAETTDPLSAGFQSDKGYPGELEIRVIYREYRSEWFRYLLADRQKLREIIKDTGWKIDHFYDIADVDVYCFVLSK,soluble
9,GPGSMMASFTPLDNFKSRSRGVMPTGIVIDKSCRVYVTQIPLERIERDGASAMKSEFEVYGPLESYKMFTDRSGRFIGSALCTYRNPADASMAVYCMDGVEVEGSTLHVEPAKEHGVVLLASGSSSGGNGQHRDHSRGFLRDTQRQWGRGGRGGAGLLGAGRGSGYSTTGREDASNTSELDLCAEELGLAATDGVSPSAANGKWSHDKYEMMAEGKDMDEVLG,not soluble
10,IGDFEYYIDGMLTFNTNKITEMDELTPDYAYQARTGNRIDQSQLLIWKQWASNPDLIPESYEDAVANPQKYPWNAAGKYKLGNAVFQDTNGDRKIDSYDKVPTGYTNIPELIPTIRLGFSWKGFDARAVLTAYLNRTVPCRENMDYGFGWGGTSTHEITNTWGYYTDDPTDPRNINAKYPRLSTSFSDLDRNYPYNESTIWVVNGDFLSLRNVEVGYSLPARLISKVNMTKCRLYFSGYNLCNWSHLPKGFDPENPTNYIWAYPKTRSFTFGVNIGF,not soluble
11,MAIVGQPNLRELFDDAPTPHIAHPPHTHRRDFYVATDGSYASDGAGLGVIIETRDGSRVLRRSVPDTAPDNNVAEYRALHLGLDTLAARTPPDASVGVLVDHDALAGDVNSAVLATQRRDYQPVRAFSAPRDARHHWRGIRARVTGFAEIRAAQVDSSRNPAHALANEPSQYAHVNDEPDRCLLPDATTSTEPQIPPPSRSDRPAGDLEHHHHHH,not soluble
12,MGDIEGSSSAAQSAQPEETGETNADKTGFFTRIMDAFSSGESQQEPTLGGASAAPVPVPGILNLRRMRVEDVAIPTAEIVSVPLTVSKEELVHVFRDSGMTRIPVYENTLDTPLGFVHLKDFALTHGFNGNSTQFDLRSMLRPLLFVPPSMPIGVLLAKMQTERRHMALVIDEYGGVDGLLTIEDLIEQVVGEIEDEHDTDEAQTWVKERPGCYIAQARTPLDEFETEIGRSLTNHEDVDEEEIDTLGGLVFMLSGRVPARGEVVPHPDGVEFEVIDADPRRIKRLRVMIPDAAE,not soluble
13,MVLAIAGCIEAYRTGHDARHGPRVPWERRLSEEDYLARLAAGSVSYSRDVQPILDSRCVVCHGCYDAPCQLKLESFDGLERGASKTPVYDTTRLQATPPTRLFIDAENVQGWRSKGFFPVLNERGDSPEANLRDSLLFRMLELKKAHPLPVSGALPDTFDFRLDRTLNCPTVEEFDDFEDDHPEWGMPYGFPGLSEREHDIVVKWLREGGFAPPPAPVSAEAASAVAQWEAFLNGSSPKERLFARYVYEHLFLGHLHFRGLAPREFFRLVRSRTPPGEPIREIATTRPYDSPGPGEFYYRLRPVQQSIVAKTHMVYELDDARMRRYRELFLDPEYAVDRLPGYAAADAANPFKTFVAIPPRSRYRFLLDDAHFFFSGFMKGSVCRGQAALNVIQDRFWVAFTHPDADPVSNDAQFLADQAERLRLPAEKENSPGIGDIWYTYRALEEDYQAAKAAWLRAHGERGGTTLADLWDGDGDNRDALLTVFRHFDSASVERGLVGDTPLTGWVVDYPLLERIHYLLVAGFDVFGNVGHQLATRLYMDFMRMEAENNFLRFLPSSIRQAERARWYKGIGARINDLWQSPRWGMGGETLIDYRTGNPKQEFFDRVRAGFGKAAGRPDPFTGCGVEVEGCGEGGEPALPPVQASVERELRRLAFARGGGVAFLPELSYLRIRTGSGGAEDGWIYSLVKNTALENVSMLFLEEIRRTPADDTVTLVRGIVGSYPNFFFDLDAAEVGEFVDAILSVDGSKAFGRRLVERFGVRRSNPAFWRISDWFNRRYLEASPVTAGWLDLSRYDNPLEHHHHHH,not soluble
14,MPEEESIDIKFRLYDGSDIGPFRYSAASTVDFLKQRVVSDWPKGKTVVPKGINEVKLISSGKILENNKTVGQCKTPFGDIAGGVIVMHVVVQPSLAKSKTEKKVDKAPKAVICTCTIL,soluble
15,IRRKINANVYDKVVLYAPTWRGIHGKATLDIEKLKNDLEKLADQDCHIVFRGHHMIEKLVSEQNISGITIVPSEIDTNELLGAIDILITDYSSIAFDFFVMNRPVIYYAYDIEQYNNERGLYFPLNELPGTVCFNDVELLNTLSGYLRNEIYFDASKGIDKFCKNDDGSVCGKVIEWFFF,not soluble
16,MNLPSKFHQVTITDPIAGAGITFTIPTRYVNLKFLNVGAQGIVVMADDLVTTQRVAIKKMQQPFLLTMSARRAYREFILLTTLKHPNIIRLLNAFTPDTSLSSFQEVYLVMEFMTHNLHEVIHRLRLDHETLSFLVYQSLCAIKHLHNLGFIHRDLKPSNIVVNERCVLKVLDFGLARRRNVDMRMSDYVGTRYYRAPEVILGLNYSEKVDIWSVGCILAEMINHTVLFPGKDIRDQWTQISSVLRTPDDHFINQLEPIGAVYVRSLPQHLARAFNEIVPDSNFLPETENPKDHLTLHMARDLLFNMLKINPEERYSVEDALNHPYTMVQGR,not soluble
17,MGSDKIHHHHHHMIERLELRNLTVFTGLTLELSPKINVIIGENGTGKTHLLKAAYGLCAGAPLFKNKPDTGDDELEAALTAKLLRLFMPLDDKLGKMHRQGATDQAYLSAKFAGGQKIAATFFNNSKALAVQDRANYEKYQAEAVFIPTKEVLSFMKGFNSLYEKYGLSFDQTYQDICLLLDLPEVRPETLHEKSKWAMAEIEGICGGRFVFYGGGKVTFKTENAEYSANSMAEGFRKAGILSRLLETGAIQPGVSGPLFWDEPESNLNPKLMKLLVQILLELSRNGQQIILATHDYVLLKWFDLLMDKGKDDHVRFHSLYRDADTSEIKVASTEDYLKITPNPIDEAFGFLINQEIENDMGGLGK,not soluble
18,MAIRLYKLAVALGVFIVSAPAFSHGHHSHGKPLTEVEQKAANGVFDDANVQNRTLSDWDGVWQSVYPLLQSGKLDPVFQKKADADKTKTFAEIKDYYHKGYATDIEMIGIEDGIVEFHRNNETTSCKYDYDGYKILTYKSGKKGVRYLFECKDPESKAPKYIQFSDHIIAPRKSSHFHIFMGNDSQQSLLNEMENWPTYYPYQLSSEEVVEEMMSH,soluble
19,MAHHHHHHMLSRLSERCTIATGLEQVLRHYVWSAAWLRDAEPAAAASENIDLSGLMERAGRAAYDVFANLYTSQKHWLILVGSGNNGGDGYVIARHAREAGKIVTVLRMPHSKPLPTEAASAQHAWKAVGGTESTMSPGAPLQLPADVDLIVDGLLGTGICGPPREQYADVIRHINGLPVPRVAIDIPSGLNAETGEAAGACVKADHTATFICLKPGLLTGQAKDYVGQLHYRSLGLEDWMTAPERMRVALCRRVALDDVYEYFGIRRSALAHKGSCGKAILVGGDHGFGGAALMSAEACVTVGAGLTRVLTRPEYAAPLLTRCPEAMVTAVETDTGEQLKQQMLEAFEWASTLAVGPGLGTGAYGQAALTAALRHAELHQDKTLVLDADALNLLAGCLHGREGGAAAGARKHLPVLPNSIITPHPGEAARLLDCRVADVEKDRLAAARRLAAILGGTCLLKGPGTIVHCHSSAKTAIVDAGNAGMASGGMGDVLTGLLAGLAAQRMHDTFDTTCAGALVHGVAADMVAAEDGRGTRGIRATELIHRVPLIVNASGPSPASRQRPSGQ,soluble
20,MALPVTSSANQPTGTNNVAATKCKGCFCPGNPCQLCRLPPHTDDPIPENEPETCRLIREAVPPASFQPGENEYFANLDKATIQCIRSGDVIPNTRRVPGYPGRVYCKPGLPALGAH,not soluble
